PMC9465349, “G protein–coupled receptor kinase phosphorylation of distal C-tail sites specifies βarrestin1-mediated signaling by chemokine receptor CXCR4” (The Journal of Biological Chemistry, 2022)

B1: βarrestin1-GFP10 (natural protein, UniProt P49407 1-418, looked up)
chain: MGDKGTRVFKKASPNGKLTVYLGKRDFVDHIDLVDPVDGVVLVDPEYLKERRVYVTLTCAFRYGREDLDVLGLTFRKDLFVANVQSFPPAPEDKKPLTRLQERLIKKLGEHAYPFTFEIPPNLPCSVTLQPGPEDTGKACGVDYEVKAFCAENLEEKIHKRNSVRLVIRKVQYAPERPGPQPTAETTRQFLMSDKPLHLEASLDKEIYYHGEPISVNVHVTNNTNKTVKKIKISVRQYADICLFNTAQYKCPVAMEEADDTVAPSSTFCKVYTLTPFLANNREKRGLALDGKLKHEDTNLASSTLLREGANREILGIIVSYKVKVKLVVSRGGLLGDLASSDVAVELPFTLMHPKPKEEPPHREVPENETPVDTNLIELDTNDDDIVFEDFARQRLKGMKDDKEEEEDGTGSPQLNNR
notes: βarrestin1 (βarr1); plasmid a gift from Michel Bouvier; Gift plasmid; also called βarr1-GFP; βarr1-GFP^10; source: HEK293, transiently transfected (PEI), in live cells
B2: STAM1 (signal-transducing adaptor molecule 1) tagged at the N terminus with Rluc8 (natural protein, UniProt Q92783 1-540, looked up)
chain: MPLFATNPFDQDVEKATSEMNTAEDWGLILDICDKVGQSRTGPKDCLRSIMRRVNHKDPHVAMQALTLLGACVSNCGKIFHLEVCSRDFASEVSNVLNKGHPKVCEKLKALMVEWTDEFKNDPQLSLISAMIKNLKEQGVTFPAIGSQAAEQAKASPALVAKDPGTVANKKEEEDLAKAIELSLKEQRQQSTTLSTLYPSTSSLLTNHQHEGRKVRAIYDFEAAEDNELTFKAGEIITVLDDSDPNWWKGETHQGIGLFPSNFVTADLTAEPEMIKTEKKTVQFSDDVQVETIEPEPEPAFIDEDKMDQLLQMLQSTDPSDDQPDLPELLHLEAMCHQMGPLIDEKLEDIDRKHSELSELNVKVMEALSLYTKLMNEDPMYSMYAKLQNQPYYMQSSGVSGSQVYAGPPPSGAYLVAGNAQMSHLQSYSLPPEQLSSLSQAVVPPSANPALPSQQTQAAYPNTMVSSVQGNTYPSQAPVYSPPPAATAAAATADVTLYQNAGPNMPQVPNYNLTSSTLPQPGGSQQPPQPQQPYSQKALL
notes: STAM1 (signal-transducing adaptor molecule 1); the plasmid holds 'the STAM1-coding region' in pcDNA3; New plasmid; Rluc8 fragment from pTRE-Tight-Rluc8 (Addgene 79844); also called Rluc8-STAM1; RLuc8-STAM1; source: HEK293, transiently transfected (PEI), in live cells; not shown: Rluc8, N-terminal, kept

What was measured:
Details in all cases: partners not purified
[1] = target: T1, CXCR4-Rluc3 (UniProt P61073 1-352); experiment: FRET or BRET; BRET2 in live HEK293 cells coexpressing a GPCR tagged with Rluc (CXCR4-Rluc3, or GPCR-Rluc8; donor) and βarr1-GFP10 (acceptor); increasing concentrations of the receptor's agonist at 37 °C; vehicle or 1 μM Gö6983 (little effect, CXCR4)
T1 construct: chemokine receptor CXCR4; plasmid a gift from Nikolaus Heveker; Gift plasmid; also called Rluc3-tagged CXCR4; source: HEK293, transiently transfected (PEI), in live cells

[2] = target: T2, NTS1-Rluc8 (neurotensin receptor 1) (UniProt P30989 1-418); experiment: as above
T2 construct: neurotensin receptor 1 (NTS1); 'the NTS1-coding region' amplified by PCR from the NTS1-Tango plasmid; New plasmid; source: HEK293, transiently transfected (PEI), in live cells

[3] = target: T1, CXCR4-Rluc3; experiment: FRET or BRET; as a13 for CXCR4-Rluc3 and βarr1-GFP, but in the presence of 30 μM GRK2/3 inhibitor compound 101
[4] = target: B1; experiment: FRET or BRET; BRET2 in live HEK293 cells coexpressing FLAG-AT1a, Rluc8-STAM1 and βarr1-GFP; increasing concentrations of angiotensin II, 10 min, 37 °C
[5] = target: B1; experiment: FRET or BRET; BRET2 in live HEK293 cells coexpressing FLAG-NTS1, Rluc8-STAM1 and βarr1-GFP; increasing concentrations of neurotensin, 10 min, 37 °C

T1 sequence (P61073 whole entry): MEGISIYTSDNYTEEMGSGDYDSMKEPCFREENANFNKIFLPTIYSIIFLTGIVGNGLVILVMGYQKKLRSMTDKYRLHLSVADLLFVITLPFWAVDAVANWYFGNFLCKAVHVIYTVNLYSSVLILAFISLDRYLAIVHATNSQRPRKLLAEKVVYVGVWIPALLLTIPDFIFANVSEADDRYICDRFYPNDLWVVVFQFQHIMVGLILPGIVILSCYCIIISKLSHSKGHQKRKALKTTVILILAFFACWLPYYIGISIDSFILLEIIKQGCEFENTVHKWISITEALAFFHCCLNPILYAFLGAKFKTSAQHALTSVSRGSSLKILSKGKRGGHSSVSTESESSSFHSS
T2 sequence (P30989 whole entry): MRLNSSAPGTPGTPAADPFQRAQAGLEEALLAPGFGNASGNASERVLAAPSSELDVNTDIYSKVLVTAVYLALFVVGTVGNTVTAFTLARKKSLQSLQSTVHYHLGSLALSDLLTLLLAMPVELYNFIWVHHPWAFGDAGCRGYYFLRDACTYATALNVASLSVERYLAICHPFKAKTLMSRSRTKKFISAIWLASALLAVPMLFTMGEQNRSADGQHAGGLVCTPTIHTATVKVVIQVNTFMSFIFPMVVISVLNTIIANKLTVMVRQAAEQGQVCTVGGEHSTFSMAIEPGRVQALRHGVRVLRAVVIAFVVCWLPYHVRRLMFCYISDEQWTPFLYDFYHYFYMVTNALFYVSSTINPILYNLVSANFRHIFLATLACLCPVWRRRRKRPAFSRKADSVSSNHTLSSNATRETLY

| Binder | EC50 of the agonist CXCL12 for the BRET response (vehicle) [1] [nM] | potency (EC50) of the agonist neurotensin for the BRET response [2] [nM] | EC50 of the agonist CXCL12 for the BRET response (with GRK2/3 inhibitor compound 101) [3] [nM] | potency (EC50) of the agonist angiotensin II for the BRET response [4] [nM] | potency (EC50) of the agonist neurotensin for the BRET response [5] [nM] |
| --- | --- | --- | --- | --- | --- |
| B1 | 0.3 | 0.13 | 7.79 | – | – |
| B2 | – | – | – | 70 | 0.22 |
